Measurements reported in patent US20160375113A1, “COMPOSITIONS COMPRISING ENO1 AND THEIR USE IN METHODS OF TREATING OBESITY OR OVERWEIGHT AND REDUCING WEIGHT GAIN” (Berg LLC, priority 2015, published 2016).
“Also recorded” adds a separate entry of the source.

Key:
[1] = Storage stability by ENO1 Human Activity Assay Kit (PK/LDH, NADH consumption); format: physicochemical; conditions: 500 ng Eno1; for activity at end of study (Week 10), −20° C.: kept at −20° C.; for activity retained at end of study (Week 10), −80° C.: kept at −80° C.; for Eno1 activity after storage, week 3, 4° C., 22° C., and 37° C.: stored at 4° C.; for Eno1 activity after storage, week 3, 4° C., 22° C., and 37° C. / Eno1 activity after storage, week 3, −80° C. and −20° C.: by week 3; for Eno1 activity after storage, week 3, −80° C. and −20° C.: stored at −80° C. and −20° C.; for Eno1 activity after storage, first week: stored at −80° C., −20° C., 4° C.; for Eno1 activity after storage, week 3, 4° C., 22° C., and 37° C. / Eno1 activity after storage, first week: 22° C., and 37° C.
Method: The stability of the Eno1-dendrimer-SMTP complex was evaluated at different temperatures, and stability was determined over a 3-4 month time period by measuring Eno1 activity using a commercially available Eno1 assay. The selected conjugates were also evaluated using biophysical techniques, including Dynamic Light Scattering (DLS) and UV-Vis spectroscopy to confirm complexation between the dendrimer-peptide conjugate and Eno1.
The stability of the Enolase-I/G5-dendrimer/SMTP conjugates was measured by using the ENO1 Human Activity Assay Kit (ABCAM, Cambridge, Mass.; Catalogue No. ab117994). Briefly, the sample was added to a microplate containing a monoclonal mouse antibody specific to Eno1. The microplate was incubated at room temperature for 2 hours, and Eno1 was immunocaptured within the wells of the microplate. The wells of the microplate were washed to remove all other enzymes. Eno1 activity was determined by following the consumption of NADH in an assay buffer that included pyruvate kinase (PK), lactate dehydrogenase (LDH) and the required substrates 2-phospho-D-glycerate (2PG) and NADH. Eno1 converts 2PG to phosphoenolpyruvate, which is converted to pyruvate by PK. Pyruvate is converted to lactate by LDH, and this reaction requires NADH. The consumption of NADH was monitored as decrease of absorbance at 340 nm.
The activity of Enolase-I/G5-dendrimer/SMTP conjugates that were stored at different temperatures at different time points was measured using the assay described above. A concentration of 500 ng of Eno1 was selected for testing because this concentration falls in the middle of the dynamic range of the assay kit. Two different sets of solutions were prepared. One set (control) contained Eno1 alone (i.e. unconjugated Eno1) and the other set contained Eno1/G5-dendrimer/SMTP mixtures. These mixtures were then kept at −80° C., −20° C., 4° C., 22° C., and 37° C. […] At the end of the study (Week 10), The Eno1/G5-dendrimer/SMTP solution that was kept at −80° C. retained about 90% of its activity whereas Eno1 alone was only 35% active. On the other hand, Eno1/G5-dendrimer/SMTP solution that was kept at −20° C. was about 24% active, whereas Eno1 alone stored at −20° C. was not active.

[2] = Tissue distribution of detectably labeled Eno1 PAMAM dendrimer complexes in mice (LI-COR imaging); format: in vivo
Method: A detectably labeled PAMAM dendrimer complex containing Eno1 was prepared using the method provided in the prior example and analyzed for tissue distribution in mice after subcutaneous injection. Specifically, for 72 hours prior to injection mice were fed alfalfa free food to limit background fluorescence. Mice were injected with 3 μg ENO1/mouse subcutaneously 150 μl total (75 μl left laterally, 75 μl right laterally). The molar ratio of dendrimer to Eno1 in the complex was 5:1. One, 4, and 24 hours post injection animals were sacrificed, skinned, and organs removed in preparation for LI-COR imaging.
A follow-up study was performed using the skeletal muscle targeted Eno1-PAMAM dendrimer complex containing the SMTP “ASSLNIA”. A detectably labeled PAMAM dendrimer complex containing Eno1 and SMTP ((Enolase-Vivo Tag680xl)-(G5-SMTP)) was prepared using the method provided in the prior example. The molar ratio of dendrimer to SMTP in the complex was 1:1. The experiments were performed essentially as described above. The skeletal muscle targeted Eno1-PAMAM dendrimer complex was administered at a dose of 50 μg/kg body weight. These images in FIG. 6B were taken after 1 hr of injection. Organs, other than the heart, were retained in the body.

db/db mice = assay: Body weight / weight gain in db/db mice treated with rosiglitazone and muscle targeted Eno1/dendrimer complex; format: in vivo; conditions: Eno1 400 μg/kg/day subcutaneous added to rosiglitazone 20 mg/kg/day
Method: A muscle targeted Eno1/dendrimer complex was generated to analyze its efficacy in reducing weight gain. The dendrimer complex comprised human Eno1, transcript variant 1 protein (SEQ ID NO: 2) which was non-covalently linked to a G5-PAMAM dendrimer/muscle targeting peptide (MTP) (ASSLNIA; SEQ ID NO: 7) conjugate. Stock solutions of Eno1 were prepared in buffer and the protein solution was mixed with the G5 dendrimer-MTP conjugate.
Lean mice and male obese and diabetic db/db mice (male BKS.Cg-m+/+Lepr^db/J) mice were obtained from a commercial vendor. All mice were housed 2-3 per cage at 22° C. on a 12:12 hr day-night cycle and were acclimated for 3 weeks at animal facility on a standard chow diet. At 8 weeks of age, 200 μg/kg body weight Eno1 was administered twice daily (at 9:00 a.m. and 5:00 p.m., 400 μg/kg daily dose) by subcutaneous injection, and 20 mg/kg body weight rosiglitazone was administered once daily by gavage at 9:00 a.m. Lean mice and db/db mice also received subcutaneous injections of saline as a control. The treatment groups were as follows: • 1. lean mice with saline injection (control) • 2. db/db mice with saline injection (control) • 3. db/db mice with rosiglitazone (20 mg/kg, once daily) • 4. db/db mice with rosiglitazone (20 mg/kg, once daily)+Eno1 (200 μg/kg, twice daily) […]

| Substance | activity at end of study (Week 10), −20° C. [1] | activity retained at end of study (Week 10), −80° C. [1] | Eno1 activity after storage, week 3, 4° C., 22° C., and 37° C. [1] | Eno1 activity after storage, week 3, −80° C. and −20° C. [1] | Eno1 activity after storage, first week [1] | other results |
| --- | --- | --- | --- | --- | --- | --- |
| Eno1 alone: Eno1 alone (i.e. unconjugated Eno1), control in the stability study | not active | 35% | no activity | significant stability | active | – |
| Eno1-PAMAM dendrimer: detectably labeled PAMAM dendrimer complex containing Eno1, molar ratio of dendrimer to Eno1 5:1, no targeting peptide | – | – | – | – | – | tissue distribution, 1 hour post injection ([2]; subcutaneous, 3 μg ENO1/mouse, dendrimer to Eno1 5:1, 1 hour (FIG. 6A)): general systemic distribution; tissue distribution, 4 hours post injection ([2]; subcutaneous, 3 μg ENO1/mouse, dendrimer to Eno1 5:1, 4 hours (FIG. 6A)): significant accumulation of the Eno1-PAMAM dendrimer was observed in liver, kidney, and subcutaneous fat, as well as in the upper torso; tissue distribution, 24 hours post injection ([2]; subcutaneous, 3 μg ENO1/mouse, dendrimer to Eno1 5:1, 24 hours (FIG. 6A)): substantially cleared and observed substantially in the liver and kidney |
| Eno1/G5-dendrimer/SMTP: Eno1 complexed with Generation 5 PAMAM dendrimers decorated with Skeletal Muscle Targeting Peptides (SMTPs) | about 24% | about 90% | no activity | significant stability | active; also recorded: slightly higher activity than Eno1 alone | – |
| Eno1: In Example 1: human Eno1 transcript variant 1 protein (SEQ ID NO: 2) non-covalently linked to G5-PAMAM dendrimer/muscle targeting peptide (ASSLNIA) conjugate | – | – | – | – | – | effect on rosiglitazone-induced weight gain (db/db mice): attenuates rosiglitazone-induced weight gain; also recorded: attenuates rosiglitazone induced weight gain; also recorded: attenuated |
| muscle-targeted Eno1 dendrimer complex: detectably labeled PAMAM dendrimer complex containing Eno1 and SMTP ASSLNIA, dendrimer to SMTP 1:1 | – | – | – | – | – | tissue distribution of muscle targeted complex, 1 hr after injection ([2]; 50 μg/kg body weight, dendrimer to SMTP 1:1, 1 hr (FIG. 6B)): targeted to skeletal muscle, not heart |
